# Square brackets hold non-standard residues; d marks the D form. Ends that are not written are not given here. Nle = CCCC[C@H](N)C(=O)O
# What was measured:
# hMC5-R = target: T1, hMC5-R (Homo sapiens, UniProt P33032); test: competitive inhibition binding assay, 125I-NDP-alpha-MSH, hMC5-R membranes; conditions: 1 μM test peptide; 0.4 nM 125I-NDP-alpha-MSH; hMC5-R membranes
# T1 construct: expressed in transfected cells
# Description: (§1) The competitive inhibition binding assay was conducted using membranes prepared from hMC3-R, hMC4-R, hMC5-R, and B-16 mouse melanoma cells (containing MC1-R) using 0.4 nM ^125I-NDP-alpha-MSH (New England Nuclear, Boston, Mass., USA) in 50 mM HEPES buffer containing 1 mM MgCl2, 2 mM CaCl2, and 5 mM KCl, at pH 7.2. The assay tube also contained a chosen concentration of the test peptide of this invention complexed to a rhenium metal ion, typically at a 1 μM concentration, for determining its efficacy in inhibiting the binding of ^125I-NDP-alpha-MSH to its receptor. Non-specific binding was measured by complete inhibition of binding of ^125I-NDP-alpha-MSH in the assay with the presence of 1 μM alpha-MSH. Incubation was for 90 minutes at room temperature, after which the assay mixture was filtered and the membranes washed three times with ice cold buffer. The filter was dried and counted in a gamma counter for remaining radioactivity bound to the membranes. 100% specific binding was defined as the difference in radioactivity (cpm) bound to cell membranes in the absence and presence of 1 μM alpha-MSH. The cpm obtained in presence of test compounds were normalized with respect to 100% specific binding to determine the percent inhibition of ^125I-NDP-alpha MSH binding. Each assay was conducted in triplicate and the actual mean valves are described.
# MC1-R = target: T2, MC1-R (Mus musculus, UniProt Q01727); test: competitive inhibition binding assay, 125I-NDP-alpha-MSH, B-16 mouse melanoma cell membranes; conditions: 1 μM test peptide; 0.4 nM 125I-NDP-alpha-MSH; B-16 mouse melanoma cell membranes
# T2 construct: membranes prepared from hMC3-R, hMC4-R, hMC5-R, and B-16 mouse melanoma cells (containing MC1-R); endogenous in cells; host or cells: B-16 mouse melanoma cells (membranes)
# T2 sequence (Q01727 whole entry): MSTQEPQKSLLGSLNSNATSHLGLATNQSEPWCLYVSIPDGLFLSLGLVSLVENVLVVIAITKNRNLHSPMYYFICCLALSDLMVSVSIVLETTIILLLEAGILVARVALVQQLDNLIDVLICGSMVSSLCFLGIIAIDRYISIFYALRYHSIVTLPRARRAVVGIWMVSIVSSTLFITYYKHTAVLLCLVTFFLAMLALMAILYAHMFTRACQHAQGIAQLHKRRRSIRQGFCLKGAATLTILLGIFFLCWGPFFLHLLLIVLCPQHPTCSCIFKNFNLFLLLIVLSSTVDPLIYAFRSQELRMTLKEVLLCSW
# Description: as §1
# hMC4-R = target: T3, hMC4-R (Homo sapiens, UniProt P32245); test: competitive inhibition binding assay, 125I-NDP-alpha-MSH, hMC4-R membranes; conditions: 1 μM test peptide; 0.4 nM 125I-NDP-alpha-MSH; hMC4-R membranes
# T3 construct: expressed in transfected cells
# T3 sequence (P32245 whole entry): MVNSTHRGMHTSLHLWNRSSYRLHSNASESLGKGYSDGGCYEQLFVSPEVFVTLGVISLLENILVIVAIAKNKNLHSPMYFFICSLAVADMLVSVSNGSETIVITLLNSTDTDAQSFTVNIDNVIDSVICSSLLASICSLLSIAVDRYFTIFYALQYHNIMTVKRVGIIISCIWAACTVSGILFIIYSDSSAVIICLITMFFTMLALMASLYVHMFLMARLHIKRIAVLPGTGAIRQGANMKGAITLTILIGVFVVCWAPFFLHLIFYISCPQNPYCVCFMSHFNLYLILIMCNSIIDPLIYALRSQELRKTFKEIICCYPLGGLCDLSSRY
# Description: as §1
# hMC3-R = target: T4, hMC3-R (Homo sapiens, UniProt P41968); test: competitive inhibition binding assay, 125I-NDP-alpha-MSH, hMC3-R membranes; conditions: 1 μM test peptide; 0.4 nM 125I-NDP-alpha-MSH; hMC3-R membranes
# T4 construct: expressed in transfected cells
# T4 sequence (P41968 whole entry): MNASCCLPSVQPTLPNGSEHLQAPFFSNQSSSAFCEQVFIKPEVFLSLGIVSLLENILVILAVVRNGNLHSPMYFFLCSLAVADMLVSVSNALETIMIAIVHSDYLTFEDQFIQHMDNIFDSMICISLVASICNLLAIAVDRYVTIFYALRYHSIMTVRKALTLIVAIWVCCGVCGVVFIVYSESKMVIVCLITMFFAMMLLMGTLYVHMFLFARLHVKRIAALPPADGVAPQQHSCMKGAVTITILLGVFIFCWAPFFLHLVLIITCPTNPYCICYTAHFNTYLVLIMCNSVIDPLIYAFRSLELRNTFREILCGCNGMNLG
# Description: as §1
# T1 sequence (P33032 whole entry): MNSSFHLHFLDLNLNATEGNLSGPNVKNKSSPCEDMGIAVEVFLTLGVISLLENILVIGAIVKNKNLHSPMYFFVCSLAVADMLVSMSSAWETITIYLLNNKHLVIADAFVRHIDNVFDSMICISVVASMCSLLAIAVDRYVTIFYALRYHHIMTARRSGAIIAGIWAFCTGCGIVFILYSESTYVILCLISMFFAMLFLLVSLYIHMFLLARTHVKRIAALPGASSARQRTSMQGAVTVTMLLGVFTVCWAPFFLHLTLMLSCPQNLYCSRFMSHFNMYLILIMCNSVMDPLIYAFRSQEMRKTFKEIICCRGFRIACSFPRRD
Substance,% Inhibition at 1 μM at Melanocortin Receptor 5 (hMC5-R) [%],% Inhibition at 1 μM at Melanocortin Receptor 1 (MC1-R) [%],% Inhibition at 1 μM at Melanocortin Receptor 4 (hMC4-R) [%],% Inhibition at 1 μM at Melanocortin Receptor 3 (hMC3-R) [%]
Ac-Ser-Tyr-Ser-Nle-Glu-His-Phe-Arg-Trp-D-Cys-Gly-Lys-Pro-Val-NH2 (chain 1 Ac-SYS[Nle]EHFRW; chain 2 [dC]GKPV-NH2; not fully specified (bridges); numbers in words are those of the source; also: oxorhenium(V) N3S1 chelate (Re(V)=O)) [2-5],0,43,4,0
Ac-Ser-Tyr-Ser-Nle-Glu-His-Phe-Arg-Trp-Gly-Cys-Lys-Pro-Val-NH2 (Ac-SYS[Nle]EHFRWGCKPV-NH2; not fully specified (bridges); printed as Ac-Ser-Tyr-Ser-Nle-Glu-His-Phe-Arg-Trp-Gly-Cys-Lys-Pro-Val-NH2; numbers in words are those of the source; also: oxorhenium(V) N3S1 chelate (Re(V)=O)) [1-4],6,72,0,0
Ac-Ser-Tyr-Ser-Nle-Glu-His-Phe-Arg-Trp-Gly-D-Cys-Lys-Pro-Val-NH2 (chain 1 EHFRWG; chain 2 CKPV; not fully specified; Ac-Ser-Tyr-Ser-Nle N-term; D-residue; amide; printed: Glu-His-Phe-Arg-Trp-Gly-; printed: Cys-Lys-Pro-Val-) [2-4],21,91,40,27
Ac-Ser-Tyr-Ser-Nle-Glu-His-Phe-Arg-Trp-Gly-Lys-Cys-Pro-Val-NH2 (Ac-SYS[Nle]EHFRWGKCPV-NH2; not fully specified (bridges); printed as Ac-Ser-Tyr-Ser-Nle-Glu-His-Phe-Arg-Trp-Gly-Lys-Cys-Pro-Val-NH2; numbers in words are those of the source; also: oxorhenium(V) N3S1 chelate (Re(V)=O)) [1-3],12,87,0,0
Ac-Ser-Tyr-Ser-Nle-Glu-His-Phe-Arg-Trp-Gly-Lys-D-Cys-Pro-Val-NH2 (Ac-SYS[Nle]EHFRWGK[dC]PV-NH2; not fully specified (bridges); printed as Ac-Ser-Tyr-Ser-Nle-Glu-His-Phe-Arg-Trp-Gly-Lys-D-Cys-Pro-Val-NH2; numbers in words are those of the source; also: oxorhenium(V) N3S1 chelate (Re(V)=O)) [2-3],38,91,25,41
Ac-Ser-Tyr-Ser-Nle-Glu-His-Phe-Arg-Trp-Gly-Lys-Gly-Cys-Val-NH2 (Ac-SYS[Nle]EHFRWGKGCV-NH2; not fully specified (bridges); printed as Ac-Ser-Tyr-Ser-Nle-Glu-His-Phe-Arg-Trp-Gly-Lys-Gly-Cys-Val-NH2; numbers in words are those of the source; also: oxorhenium(V) N3S1 chelate (Re(V)=O)) [1-2],37,87,0,6
